Source: paper PMC5096715, “Mapping the Complement Factor H-Related Protein 1 (CFHR1):C3b/C3d Interactions” (PLoS ONE, 2016)

Biological target: the molecule itself
Experiment: SEC; preparative HiPrep 16/60 Sephacryl S200 column in DPBS pH 7.4

B1: complement factor H-related protein 1 (CFHR1), recombinant wild-type (natural protein, human, UniProt Q03591 19-330, looked up)
chain: EATFCDFPKINHGILYDEEKYKPFSQVPTGEVFYYSCEYNFVSPSKSFWTRITCTEEGWSPTPKCLRLCFFPFVENGHSESSGQTHLEGDTVQIICNTGYRLQNNENNISCVERGWSTPPKCRSTDTSCVNPPTVQNAHILSRQMSKYPSGERVRYECRSPYEMFGDEEVMCLNGNWTEPPQCKDSTGKCGPPPPIDNGDITSFPLSVYAPASSVEYQCQNLYQLEGNKRITCRNGQWSEPPKCLHPCVISREIMENYNIALRWTAKQKLYLRTGESAEFVCKRGYRLSSRSHTLRTTCWDGKLEYPTCAKR
notes: complement factor H-related protein 1, human, CFHR1*A variant, residues 19-330 of Q03591 (the mature protein, 5 SCR modules); no cleavage of the tag is told; Glycosylated; elutes as a mixture of dimers and monomers; also called wild-type CFHR1; CFHR1*A variant; source: Freestyle 293f cells, transiently transfected, secreted, purified (Histrap HP, Sephacryl S200 SEC); not shown: His6, N-terminal, …
With B1 the “stoichiometry N” value was 2.
